# Measured values taken from PMC3477023, “Microbial β-glucosidases from cow rumen metagenome enhance the saccharification of lignocellulose in combination with commercial cellulase cocktail” (Biotechnology for Biofuels, 2012).
# B1: LAB20g4 (uncultured bacterium LAB20) (protein)
# chain: MKKIMLLSATVLALAGCKGDPQLGKDSVDKVLKAMTLEEKVHFVIGTGMAGFGGESAVVGATKNIVPGAAGTTYPIERLGIPSIVLADGPAGLRIDPTREGDENTYYCTHFPIGTLLASTWNQELVESVGKAMGEEVHEYGADVYLAPALNIHRHPLNGRNFEYYSEDPVVAGKTAAAYVRGVQSNDVGTSIKHFAYNNQETNRTGNNAVISPRAQREIYLKGFEITVKESDPWTVMSSYNKINGTYTSQSRDLITTVLRDEWGFKGLVMTDWFGGDNGAEQIAAGNDMLQPGTDLQYQQIMDAIKDGSLSEDELNICVRRCLELVARSPKAKGYAYSNKPDLKAHAAVTRQSALEGMVLLENNGVLPLKDVKNVAVFGCTSFDFIAGGTGSGNVNRAYTVSLLDGLKNAGFNVDESNKEATLKHIADEDAAFKASLTDQLSAFYPTPRPSELVPSAAELAASARANDVAIITFGRNSGEFFDRTSADFSLSAKEKELLAKVTAAFHAKGKKVVVVLNVGGVIETASWKSVPDAILLAWQAGQEGGNSVTDILTGAKSPSGKLPMTFPVNLMDHASSANFPIDSDTGVYFTNRREDVGQKDVDVTKYEEGIYVGYRWFDKQNLPVSYPFGYGLSYTTFEYSAPAVANDGKTVTAKVTVKNTGSVAGKEAVQLYVSAPAGTLDKPVKELKAYGKTKELAPGESQELTLTFPTSELASFDEEASAWKVDAGTYTFQFGASSRDVRCTATAEAAASETPANRVLLMK
# notes: gene 2295 bp (764 residues calculated), full ORF from ATG with native signal region in pET-41 Ek/LIC, E. coli BL21(DE3), Ni-NTA, tags removed by enterokinase
# B2: LAB25g2 (uncultured bacterium LAB25) (protein)
# chain: MKKLLTICFVATTFGMTMNAQPKLSADNIDEVLKAMTLEEKAKLLVGGANNFFSANAVVGGEATLVAGAAGTTPEIARLGIPATVLTDGPAGVRINPTRRGTDQTFYATAFPIGSCLASTWNTELVGQVGQAIGNETKEYRCDVILGPGMNLHRNPLCGRNFEYYSEDPFLTGKIAAAYINGVQKEDVGVSAKHFAVNSQETDRTSVDERLSQRAAREIYLRGFEIAVRESNPWTIMASYNIINGTHAMGNRDLLTSILRDDWGYKGIVMTDWIGIRQGLTTISEVQAGNDLMEPGQPAQVQEIIDGVKNGKLAIADVDRNVRRMLEYIVKTPSFRKYPASNKPDFTAHAAITRQSANEGIVLLKNNGTLPWKNIKSVALFGENSYDFLSGGTGSGCVHPPYVVDMLEGLKNAGIKSSETLTDIYRKYIAYARVKFQAERHPAKWFQTEAMGQQKYPEISLSPIAVEKEVRGADAAIITIGRQAGEGIDRDIETEFNLIPEERQLIFDVCQAFHAAGKPVVVIINSGSVIETASWSGYPDAILCAWQPGMEGGNSIADLLTGKVNPSGKLTMTWPIAATDHASTKNFPGALDDYSLMQMLGNGQPIPGHAYTNHEEDIYVGYRFFDTFKRDVAYPFGYGLSYTTFEYSKPVVKAKGQTVEVSITVKNSGSVSGKEVAQVYVAAPKGRLEKPAQELKAFAKTRELQPGESQTLTMTIPVRNLASFDEANSQWLTEAGTYTFRIGANSRDIRCTAEAKLAEYTEQTSNALAPKQKLNLLKQ
# notes: gene 2340 bp (779 residues calculated), full ORF from ATG with native signal region in pET-41 Ek/LIC, E. coli BL21(DE3), Ni-NTA, tags removed by enterokinase
# B3: SRF2g14 (uncultured bacterium SRF2) (protein)
# chain: MKKTLFFAFGMATLMMGCTSADKVTKNTLNQEEVMNRLSLEDKAHFVIGVGMAGFSGDDAVIGATKNLVPGAAGTTYPLDSLGIPAVVLADGPAGLRIDATREGDSATYYCTHFPIGTLLASTWNQKLVEEVGQAIGEEVKEYGADVLLAPALNIMRNPLCGRNFEYYSEDPVVAGKTASAYITGVQKNDVGTSIKHFAANNQETNRMNTDAHISQRALREIYLKGFEIAIKESKPWTVMTSYNYINGVYTSESKDLVQTILRDEWGYEGTVMTDWFGGKDGAKQMWAGNDMLQPGKAEQFDSIVAGVKSGKLDEADLDRNIQRILNLVEKSPRFQGYQYSNKPDLKAHAAVTRQSAAEGMVLMKNNEVLPLKENVKNVALYGCTSYDFIAGGTGSGNVNHAYVVSLLDGLKNGGYNVSDELKSAYEKYIADCKEARKKEIEEMAKKDKQAAMLARFMPGTLPAEKQFSSEELAKQADASDLAVITIGRISGEFLDRKAADFNLNDSEMKLIQQVCEVYHKVGKQVVVLLNIGGVIETASWKELPDAILCAWQAGQEGGNSVVDVLSGKQSPSGKFTMTWPVKFTDAYSSKNFPIDEDPKIDMMNQGQKGNVKNVDYADYEEDIYVGYRYFDSFDVPVSYPFGFGLSYTTFEYSDAKISQKNDIYDVTVTVKNTGKFEGKEVVELYISAPDNKAANKPSKELKAFAKTRSLKPGESETLTLSVTAPELASFDEAASAWVVAEGEYQFLVGASSQDIKATLTANAKSFQIKVNDVMKPQVQMNLLKR
# notes: gene 2361 bp (786 residues calculated), full ORF from ATG with native signal region in pET-41 Ek/LIC, E. coli BL21(DE3), Ni-NTA, tags removed by enterokinase
# B4: SRF2g18 (uncultured bacterium SRF2) (protein)
# chain: MRKSIHQISLVILAVVAMCGYSLRMKAQQLKAENIDEVVKAMTLEEKCHMVLGRGMHFNDEAKFPGTAGSTFSIARLGVPETYCADSQQGLRMNATRAWDHNDYYPTDFVASMTLASTWDREAAFKVGQGIGNEVREFGLDWILSPAMNLIRNPLCGRNHEYYSEDPYLSGTIAAGYVNGVQSEGTAACPKHFVANNQETNRNNNVSQVSQRALREIYLKAFEIMVKESNPWTIMTSYNKLNGPYAVQNHDLLTTIVRNEWGWKGMYVSDWNAGDDAVAAMLAGNDMLQPGQDKQYQAILEAAQSGKLPMEVIDANVKRILEYVVKTHNFKGYKYNNEPDLKAHAKVVREVGADGIVLLKNSGVLPLVGKRVALFGCTSYDWISGGSGFGGTSVGHYTVSLIEGMRSVGYEIYKPLIAAYTQHIAAEEKRLFPNGRPAFSLMPPARADEKQFTADELNAAIEGSDVAIISLGRKSGEAADRSESDFYLKDGEAQLIKAVSDAYHAKGKQVVVLLDICSPIDVASWQNQVDALVCTWQGGQESGFSVADVLSGKVNPSGKLPMTFQIKYGDAYADKNFPANVDDKTLGAMFMWGYDKDNTPKERQLQANIDFTNYEEDIYVGYRYFDSFSKPVAYPFGFGLSYTTFAYENLSVSETDGVFTVKVDVKNTGNKAGRNVVELFVAAPNSKQLNKPEKELRNYAKTSLLKPGQTETVIMLVKTEDLASFNEKASAWKTDAGVYTFMICSSANQIEVQTSAKVKAWTKKVNNVMKPKLKLNLLKR
# notes: gene 2343 bp (780 residues calculated), full ORF from ATG with native signal region in pET-41 Ek/LIC, E. coli BL21(DE3), Ni-NTA, tags removed by enterokinase
# What was measured:
# Experiment in all cases: purified protein
# Conditions in all cases: 40°C, pH 5.6, 50 mM sodium acetate
# purified protein [1] = substrate: O=[N+]([O-])c1ccc(O[C@@H]2O[C@H](CO)[C@@H](O)[C@H](O)[C@H]2O)cc1
# purified protein [2] = substrate: O=[N+]([O-])c1ccc(O[C@@H]2O[C@H](CO)[C@@H](O[C@@H]3O[C@H](CO)[C@@H](O)[C@H](O)[C@H]3O)[C@H](O)[C@H]2O)cc1; type: biochemical, uncultured bacterium LAB20
# purified protein [3] = substrate: O=[N+]([O-])c1ccc(O[C@@H]2O[C@H](CO)[C@@H](O[C@@H]3O[C@H](CO)[C@@H](O)[C@H](O)[C@H]3O)[C@H](O)[C@H]2O)cc1; type: biochemical, uncultured bacterium LAB25
# purified protein [4] = substrate: O=[N+]([O-])c1ccc(O[C@@H]2O[C@H](CO)[C@@H](O[C@@H]3O[C@H](CO)[C@@H](O)[C@H](O)[C@H]3O)[C@H](O)[C@H]2O)cc1; type: biochemical, uncultured bacterium SRF2
protein,measurement,setting,value
B1,Km,purified protein [1],30 ± 3 µM
same,kcat,purified protein [1],0.88 s⁻¹
same,kcat/Km,purified protein [1],29500 M⁻¹ s⁻¹
same,Km,purified protein [2],1470 ± 130 µM
same,kcat,purified protein [2],0.12 ± 0.2 s⁻¹
same,kcat/Km,purified protein [2],82.7 M⁻¹ s⁻¹
B2,Km,purified protein [1],450 ± 60 µM
same,kcat,purified protein [1],0.41 s⁻¹
same,kcat/Km,purified protein [1],920 M⁻¹ s⁻¹
same,Km,purified protein [3],390 ± 30 µM
same,kcat,purified protein [3],0.17 ± 0.36 s⁻¹
same,kcat/Km,purified protein [3],438 M⁻¹ s⁻¹
B3,Km,purified protein [4],480 ± 54 µM
same,kcat,purified protein [4],0.19 ± 0.36 s⁻¹
same,kcat/Km,purified protein [4],416 M⁻¹ s⁻¹
same,Km,purified protein [1],34 ± 3 µM
same,kcat,purified protein [1],0.37 s⁻¹
same,kcat/Km,purified protein [1],10800 M⁻¹ s⁻¹
B4,Km,purified protein [4],480 ± 72 µM
same,kcat,purified protein [4],0.11 ± 0.22 s⁻¹
same,kcat/Km,purified protein [4],232 M⁻¹ s⁻¹
same,Km,purified protein [1],1730 ± 4 µM
same,kcat,purified protein [1],0.27 s⁻¹
same,kcat/Km,purified protein [1],159 M⁻¹ s⁻¹
